Source: PMC9452295 (2022)

Columns and labels:
[1] = target: T1, MRAS(1–178)–Avi, biotinylated, wild type (human, UniProt O14807 1-178, biotin on the Avi tag); assay: SPR; +PP1Cα
T1 chain: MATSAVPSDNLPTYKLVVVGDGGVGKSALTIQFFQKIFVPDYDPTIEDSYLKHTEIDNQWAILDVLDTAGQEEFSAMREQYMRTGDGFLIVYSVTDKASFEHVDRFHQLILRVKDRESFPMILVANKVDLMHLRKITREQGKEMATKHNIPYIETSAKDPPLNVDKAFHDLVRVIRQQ

[2] = target: T1, MRAS(1–178)–Avi, biotinylated, wild type; assay: SPR; +PP1Cα(P50R)

- Kd [1]: 86.3 nM
- Kd [2]: 34.8 nM
B1: SHOC2 (residues 80–582, LRR domain), wild type (domain or fragment)
chain: GTRKKSSNAEVIKELNKCREENSMRLDLSKRSIHILPSSIKELTQLTELYLYSNKLQSLPAEVGCLVNLMTLALSENSLTSLPDSLDNLKKLRMLDLRHNKLREIPSVVYRLDSLTTLYLRFNRITTVEKDIKNLSKLSMLSIRENKIKQLPAEIGELCNLITLDVAHNQLEHLPKEIGNCTQITNLDLQHNELLDLPDTIGNLSSLSRLGLRYNRLSAIPRSLAKCSALEELNLENNNISTLPESLLSSLVKLNSLTLARNCFQLYPVGGPSQFSTIYSLNMEHNRINKIPFGIFSRAKVLSKLNMKDNQLTSLPLDFGTWTSMVELNLATNQLTKIPEDVSGLVSLEVLILSNNLLKKLPHGLGNLRKLRELDLEENKLESLPNEIAYLKDLQKLVLTNNQLTTLPRGIGHLTNLTHLGLGENLLTHLPEEIGTLENLEELYLNDNPNLHSLPFELALCSKLSIMSIENCPLSHLPPQIVAGGPSFIIQFLKMQGPYRAMV
